Test results published in patent publication US11623960 (dated 2023).
One block for each binder: values may come before it.

Assays:
Test in all cases: SPR
VEGFR2 (KDR) IgD6-7 = target: T1, VEGFR2 (KDR) IgD6-7 (human, UniProt P35968)
T1 chain: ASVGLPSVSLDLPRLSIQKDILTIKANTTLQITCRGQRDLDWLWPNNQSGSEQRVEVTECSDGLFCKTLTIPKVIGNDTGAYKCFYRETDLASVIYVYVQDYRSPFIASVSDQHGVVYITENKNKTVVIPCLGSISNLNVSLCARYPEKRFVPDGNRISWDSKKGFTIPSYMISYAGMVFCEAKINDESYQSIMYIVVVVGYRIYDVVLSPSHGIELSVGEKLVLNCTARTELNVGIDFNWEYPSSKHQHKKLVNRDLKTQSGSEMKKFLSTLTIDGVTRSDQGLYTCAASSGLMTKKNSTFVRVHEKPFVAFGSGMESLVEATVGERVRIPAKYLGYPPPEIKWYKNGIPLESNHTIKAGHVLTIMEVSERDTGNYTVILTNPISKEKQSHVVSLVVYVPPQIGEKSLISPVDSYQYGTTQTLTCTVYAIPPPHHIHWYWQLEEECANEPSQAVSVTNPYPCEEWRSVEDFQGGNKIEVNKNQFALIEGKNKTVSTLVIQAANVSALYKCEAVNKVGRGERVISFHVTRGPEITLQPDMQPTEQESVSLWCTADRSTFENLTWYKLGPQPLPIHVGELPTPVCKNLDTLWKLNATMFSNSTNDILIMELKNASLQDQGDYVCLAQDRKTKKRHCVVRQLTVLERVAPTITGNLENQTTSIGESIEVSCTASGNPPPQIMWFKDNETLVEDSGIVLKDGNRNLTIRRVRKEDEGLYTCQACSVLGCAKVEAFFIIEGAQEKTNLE

VEGFR3 (Flt-4) IgD4-7 = target: T2, VEGFR3 (Flt-4) IgD4-7 (human, UniProt P35916)
T2 chain: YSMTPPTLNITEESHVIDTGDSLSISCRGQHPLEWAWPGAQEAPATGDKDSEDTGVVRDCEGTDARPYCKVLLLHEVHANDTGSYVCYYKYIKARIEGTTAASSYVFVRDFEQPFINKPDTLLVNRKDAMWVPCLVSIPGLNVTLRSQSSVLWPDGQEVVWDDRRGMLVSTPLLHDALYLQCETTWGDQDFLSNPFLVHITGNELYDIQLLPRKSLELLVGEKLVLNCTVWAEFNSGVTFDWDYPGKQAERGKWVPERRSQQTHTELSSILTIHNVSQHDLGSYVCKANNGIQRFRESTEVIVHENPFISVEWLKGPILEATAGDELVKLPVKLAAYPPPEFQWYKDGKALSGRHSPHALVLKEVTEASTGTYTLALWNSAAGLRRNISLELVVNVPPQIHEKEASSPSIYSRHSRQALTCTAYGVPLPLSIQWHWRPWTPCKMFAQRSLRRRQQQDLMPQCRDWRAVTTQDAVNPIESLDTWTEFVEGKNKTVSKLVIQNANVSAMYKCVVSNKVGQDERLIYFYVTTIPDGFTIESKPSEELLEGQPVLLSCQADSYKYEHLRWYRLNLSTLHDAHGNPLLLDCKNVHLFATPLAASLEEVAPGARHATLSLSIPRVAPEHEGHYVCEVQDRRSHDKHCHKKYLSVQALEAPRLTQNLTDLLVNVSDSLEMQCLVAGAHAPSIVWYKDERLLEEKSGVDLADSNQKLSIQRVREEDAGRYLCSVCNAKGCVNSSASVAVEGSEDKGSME

VEGFR2 (KDR) IgD4-7 = target: T3, VEGFR2 (KDR) IgD4-7 (human, UniProt P35968)
T3 chain: T1 chain

VEGFR3 (Flt-4) IgD6-7 = target: T4, VEGFR3 (Flt-4) IgD6-7 (human, UniProt P35916)
T4 chain: T2 chain

Kd (VEGFR2 (KDR) IgD6-7): 1.13 nM | Kd (VEGFR3 (Flt-4) IgD4-7): 3.3 nM | Kd (VEGFR2 (KDR) IgD4-7): 2.18 nM | Kd (VEGFR3 (Flt-4) IgD6-7): 13 nM
B1: R2C7-1 (antibody, V domains shown)
VH: EVQLQQSGPELVKPGASVKISCKASGYSFTDYFINWVIQRHGKSLEWVGRINPYNGGSFYNQKFKDKATLTVDKSSNIAHMELRSLASEDSAIYYCARSGGNGYDYWGQGTTLTVSS
VL: DIVMTQAAPSVPVIPGESVSISCRSSKSLLHSNGNTYLYWFLQRPGQSPQLLIYRMSNLASGVPDRFSGSGSGTAFTLRISRVEAEDVGVYYCMQHLEYPYTFGGGTKVEIK

Kd (VEGFR2 (KDR) IgD6-7): 1.5 nM | Kd (VEGFR3 (Flt-4) IgD4-7): 1.1 nM | Kd (VEGFR2 (KDR) IgD4-7): 0.46 nM | Kd (VEGFR3 (Flt-4) IgD6-7): 4.8 nM
B2: R2C9-11 (antibody, V domains shown)
VH: QVQLQQPGAELVKPGASVKLSCKASGYTFTSYWMHWVKQRPGQGLEWIGEINPSNGRTNYNEKFKSKATLTVDKSSSTAYMQLSSLTSEDSAVYYCANLYFDVWGAGTTVTVSS
VL: DIVMTQSPSSLSVSAGEKVTMSCKSSQNLLNSGNQKYYLAWYQQKPGQPPKLLIYGASIRESGVPDRFIGSGSGTDFTLTISSVQAEDLAVYFCQSDHSYPYTFGGGTKLEIK
